Results from US20080193947A1, “Complementary Peptides For Beta-Amyloid 29-42 Peptide” (priority 2004, published 2008).
Where no end group is shown, it is not given here.

Columns and labels:
Aβ 29-42 [1] = target: T1, Aβ 29-42 (Homo sapiens, UniProt P05067); assay type: biochemical; conditions: for % of fusion after 15 minutes: 1/1 peptide ratio, room temperature, average of plateau (10-15 minutes) of three experiments, Aβ alone = 100%
SH-SY5Y cells [2] = assay: Cell toxicity assay (MTS) of single peptides on human neuroblastoma cell line; assay type: cell-based; conditions: 24 h, FIG. 7 / FIG. 8
SH-SY5Y cells [3] = assay: Cell toxicity assay (MTS) in presence of both the Aβ 1-42 and ApoE 270-287 peptides; assay type: cell-based, human; conditions: 2 μM ApoE 270-287 + 100 μM Aβ 1-42 (ratio 1/50), 24 h, FIG. 9
Aβ 29-42 [4] = assay type: biochemical; conditions: without Aβ 29-42; data not shown
Text: (§1) In this leakage assay, performed according to the procedure described in Ellens et al. (Ellens, H., Bentz, J., and Szoka, F. C. (1985) Biochemistry 24, 3099-3106), a substance encapsulated in the liposomes is followed by fluorescence measurement. HPTS ([…]) and his quencher DPX (p-xylylenebis[pyridinium]bromide) were both encapsulated in the aqueous phase of the same liposomes. Liposomes were eluted on a Sephadex G75 column to remove the excess of HPTS and DPX.
(§2) Fluorescence was measured at room temperature using excitation and emission wavelengths of 450 nm and 512 nm, respectively. Leakage induced by the Aβ peptide was followed by measuring the dequenching of HPTS released into the medium. The percentage of release induced by the peptide was defined as Ft/Ftot×100, where Ft is the fluorescence signal measured at time t and Ftot is the signal obtained after lysing the vesicles with 0.5% Triton X100.

Aβ 29-42 [5] = target: T1, Aβ 29-42; assay type: biochemical; design: made in house; host or cells: chemical peptide synthesis (no expression host); conditions: for HPTS fluorescence signal when added to Aβ 29-42 (inhibition of membrane destabilization): independently of the mutant/Aβ 29-42 molar ratio, Aβ peptide/lipid molar ratio 0.4, FIGS. 4a and b
Text: as §1, §2

[6] = target: T2, β-Amyloid peptidic fragment 29-42 (Aβ 29-42) (C-terminal and N-terminal blocked (N-amidated and C-acetylated) (so in the source)); assay: cell-based or functional assay
[7] = target: T2, β-Amyloid peptidic fragment 29-42 (Aβ …); assay: cell-based or functional assay; remark: listed apart in the source

Ac-EDMQRQWAGLVEKVQAAV-NH2 [ApoE WT]
% of fusion after 15 minutes (Aβ 29-42 [1]): 89%
fluorescence signal (lipid fusion), Aβ 29-42 alone taken as 100% fusion reference (Aβ 29-42 [1]; FIG. 3, added to Aβ 29-42 at molar ratio of 1, Aβ peptide/lipid ratio 0,4 (mol/mol)): about 91%
cell toxicity (viability against increasing peptide concentrations) (SH-SY5Y cells [2]): induces cell toxicity only at 100 μM
cell viability in presence of Aβ 1-42 and the complementary peptide (SH-SY5Y cells [3]): 80%

Aβ 1-40: β-Amyloid 1-40 peptide
cell toxicity (viability against increasing peptide concentrations) (SH-SY5Y cells [2]): does not induce any

EDMQRQLAGVVEKVQAAV (also: N- and C-terminal blocking) [ApoE mutant 11, peptide derived from ApoE WT]
destabilization effects of the peptide alone on the membranes (Aβ 29-42 [4]): no destabilization effects on the membranes
HPTS fluorescence signal when added to Aβ 29-42 (inhibition of membrane destabilization) (Aβ 29-42 [5]): much weaker

EDMQRQMAGLMEKMQAAV (also: N- and C-terminal blocking) [ApoE mutant 413, peptide derived from ApoE WT]
destabilization effects of the peptide alone on the membranes (Aβ 29-42 [4]): no destabilization effects on the membranes
HPTS fluorescence signal when added to Aβ 29-42 (inhibition of membrane destabilization) (Aβ 29-42 [5]): much weaker

GAIIGLMVGGVVIA (listed as Homo sapiens) [Aβ 29-42, C-terminal part of the β-Amyloid protein, tilted fusion peptide]
% of fusion after 15 minutes (Aβ 29-42 [1]): 100%
% of leakage after 15 minutes (Aβ 29-42 [5]; 1/1 peptide ratio, room temperature, average of plateau (10-15 minutes) of three experiments): 28%

Ac-EDMQRQLAGVVEKVQAAV-NH2 [ApoE mutant 11]
R18 fluorescence signal of lipid fusion against Aβ 29-42 alone as 100% (FIG. 3, molar ratio of 1) [6]: 23%
% of fusion after 15 minutes (R18 lipid fusion of SUV induced by Aβ 29-42, 1/1 peptide ratio) [7]: 17%
% of leakage after 15 minutes (HPTS/DPX liposome leakage induced by Aβ 29-42, 1/1 peptide ratio) [7]: 0%

EDMQRQWAGLVEKVQAAV (not fully specified (N-terminus, C-terminus)) [wild type Apolipoprotein E3 peptide 270-287 (ApoE WT)]
R18 fluorescence signal of lipid fusion against Aβ 29-42 alone as 100% (FIG. 3, molar ratio of 1) [6]: ~91%
% of fusion after 15 minutes (R18 lipid fusion of SUV induced by Aβ 29-42, 1/1 peptide ratio) [7]: 89%

Ac-EDMQRQMAGLMEKMQAAV-NH2 [ApoE mutant 413]
R18 fluorescence signal of lipid fusion against Aβ 29-42 alone as 100% (FIG. 3, molar ratio of 1) [6]: 25%
% of fusion after 15 minutes (R18 lipid fusion of SUV induced by Aβ 29-42, 1/1 peptide ratio) [7]: 21%
% of leakage after 15 minutes (HPTS/DPX liposome leakage induced by Aβ 29-42, 1/1 peptide ratio) [7]: 4%
